System: CCCCCCCC(=O)Oc1ccc([N+](=O)[O-])cc1
Test: purified protein
Assay type: biochemical, Pseudomonas chlororaphis
Settings: 0.1-3.0 mM substrate, optimal conditions (pH 8.0, 40 °C)

Question: For LIP2 (Pseudomonas chlororaphis), which Km is on record?
Answer: 286 µM

From article PMC9065602, “Characterization of Polymer Degrading Lipases, LIP1 and LIP2 From Pseudomonas chlororaphis PA23” (Frontiers in Bioengineering and Biotechnology, 2022)
